B1: VASN: Vasorin, known ADAM17 substrate; library peptide amino acids 496-585 (protein)
peptide: LTYRNLSGPDKRLVTLRLPASLAEYTVTQLRPNATYSVCVMPLGPGRVPEGEEACGEAHTPPAVHSNHAPVTQAREGNLPLLIAPALAAV
B2: KVATLPLSSRAGAPPAAVPIINMILPTVPALPGPGPGPGRAPPGGLTQPRGTENREVGIGGDQGPHDKGVKRTAEVPVSEASGQAPPAKA (protein, listed as Homo sapiens)
chain: KVATLPLSSRAGAPPAAVPIINMILPTVPALPGPGPGPGRAPPGGLTQPRGTENREVGIGGDQGPHDKGVKRTAEVPVSEASGQAPPAKA
B3: QSVSPVQAPPPGGSAQLLPGKVLVPLAAPSMSVRGGGAGQPLPLVSPPFSVPVQNGAQPPSKIIQLTPVPVSTPSGLVPPLSPATLPGPT (protein, listed as Homo sapiens)
chain: QSVSPVQAPPPGGSAQLLPGKVLVPLAAPSMSVRGGGAGQPLPLVSPPFSVPVQNGAQPPSKIIQLTPVPVSTPSGLVPPLSPATLPGPTA
B4: ATPGAPGSSTPGEADIGNTSFGKSGKSGHDSLTVLNPAFLRRTPTVSAASTTSSPVSKHTDAASATAVTISGSKPGTPGTPGGATSGGKI (protein, listed as Homo sapiens)
chain: ATPGAPGSSTPGEADIGNTSFGKSGKSGHDSLTVLNPAFLRRTPTVSAASTTSSPVSKHTDAASATAVTISGSKPGTPGTPGGATSGGKI
B5: KAGVVTLHSVGPTAATGTTAGTGLLQTSKPLVTSVANTVTTVSLQPEKPVVSGTAVTLSLPAVTFGETSGAAICLPSVKPVVSSAGTTS (protein, listed as Homo sapiens)
chain: KAGVVTLHSVGPTAATGTTAGTGLLQTSKPLVTSVANTVTTVSLQPEKPVVSGTAVTLSLPAVTFGETSGAAICLPSVKPVVSSAGTTS
B6: EIVPASLQRVRRPVAMVMPARRTPHVQAVQGPLGSPPKRGPLPTEEQRVYRRKELEEVSPETPVVPATTQRTLARPGPEPAPATDERDRV (protein, listed as Homo sapiens)
chain: EIVPASLQRVRRPVAMVMPARRTPHVQAVQGPLGSPPKRGPLPTEEQRVYRRKELEEVSPETPVVPATTQRTLARPGPEPAPATDERDRV
B7: SPLIAPVMGTVAVSLSSPLLSSTATPPGVSQNLLANPMSNLVLPEAPRLRLAEPLRGGPTGPQSPACVVPTATTKVPLSTEPPQSTQDPE (protein, listed as Homo sapiens)
chain: SPLIAPVMGTVAVSLSSPLLSSTATPPGVSQNLLANPMSNLVLPEAPRLRLAEPLRGGPTGPQSPACVVPTATTKVPLSTEPPQSTQDPE
B8: SSVSTGHTTPLHVTDASSASTGQATPLPVTSLSSVSTGDTTPLPVTSPSSASTGHATPLLVTDTSSASTGHATPLPVTDASSVSTDHATS (protein, listed as Homo sapiens)
chain: SSVSTGHTTPLHVTDASSASTGQATPLPVTSLSSVSTGDTTPLPVTSPSSASTGHATPLLVTDTSSASTGHATPLPVTDASSVSTDHATS
B9: … (protein, listed as Homo sapiens)
chain: STRPVLASIEPELPMQLVSQDDESGQKKLHGLQAILVHEASGTTAITATATGYQESHLSSARTKQPHDPLVPLSASIELILVEDVRVSPE
B10: HSALPFRLQLRRGEARLGEERHFQESGNSSWEILRASKAEEGTYECTAVSRAGTGRAKAQIVVTDPPPQLVPAPNVTVSPGETAVLSCRV (protein, listed as Homo sapiens)
chain: HSALPFRLQLRRGEARLGEERHFQESGNSSWEILRASKAEEGTYECTAVSRAGTGRAKAQIVVTDPPPQLVPAPNVTVSPGETAVLSCRV
B11: MELQSRPEALAVELARHQNGDLKKQLHERQPRIAALSDKQALGTITAVPVTGPQVSSLQRLAGQGAAVLPQVRPKTLIPDSLPVAPGRDR (protein, listed as Homo sapiens)
chain: MELQSRPEALAVELARHQNGDLKKQLHERQPRIAALSDKQALGTITAVPVTGPQVSSLQRLAGQGAAVLPQVRPKTLIPDSLPVAPGRDR
B12: YVAPLTAQPATYRAQPSVSLGAAYRAQPSASLGVGYRTQPMTAQAASYRAQPSVSLGAPYRGQLASPSSQSAAASSLGPYGGAQPSASAL (protein, listed as Homo sapiens)
chain: YVAPLTAQPATYRAQPSVSLGAAYRAQPSASLGVGYRTQPMTAQAASYRAQPSVSLGAPYRGQLASPSSQSAAASSLGPYGGAQPSASAL
B13: IAAKAQLARQQSPSPIRHSPSPVRHVRAPTPSPVRSVSPAARISTSPIRSVRSPLLMRKTQASTVATGPEVPPPWKQEGYVASSSEAEMR (protein, listed as Homo sapiens)
chain: IAAKAQLARQQSPSPIRHSPSPVRHVRAPTPSPVRSVSPAARISTSPIRSVRSPLLMRKTQASTVATGPEVPPPWKQEGYVASSSEAEMR
B14: PARLLGPSLTSTTPASSSSGSSSRGPSDTSSRFSKEQRGVAQPLAQLRSCPQEEGPRGRGLAARPLENRAGGPVARSEEPGAPLPVAVGT (protein, listed as Homo sapiens)
chain: PARLLGPSLTSTTPASSSSGSSSRGPSDTSSRFSKEQRGVAQPLAQLRSCPQEEGPRGRGLAARPLENRAGGPVARSEEPGAPLPVAVGT
B15: EPEPTPGLVLSKPALEEEEAPRALSLLSLPPKKRSILGLGQARPLEFLRTCYGGSFLVHESFLYKREKAVGDKVYWTCRDHALHGCRSRA (protein, listed as Homo sapiens)
chain: EPEPTPGLVLSKPALEEEEAPRALSLLSLPPKKRSILGLGQARPLEFLRTCYGGSFLVHESFLYKREKAVGDKVYWTCRDHALHGCRSRA
B16: PVTSTSSASTGHATPLPVTGLSSATTDDTTRLPVTDVSSASTGQATPLPVTSLSSVSTGDTTPLPVTSPSSASTGHASPLLVTDASSAST (protein, listed as Homo sapiens)
chain: PVTSTSSASTGHATPLPVTGLSSATTDDTTRLPVTDVSSASTGQATPLPVTSLSSVSTGDTTPLPVTSPSSASTGHASPLLVTDASSAST
B17: RLALPLRSLSASSGWNESCSSQSDISLDHVQRRRSRLKEPPELQSSERAAGSPPAPGTMSKHRGKSSATCRCCVTYCEGENHLRNKSRAE (protein, listed as Homo sapiens)
chain: RLALPLRSLSASSGWNESCSSQSDISLDHVQRRRSRLKEPPELQSSERAAGSPPAPGTMSKHRGKSSATCRCCVTYCEGENHLRNKSRAE
B18: VLNSGARVWPSASALGLTAPPKDAEDRARPASGLRGARVLSEGREPRASLRVQVRPGLDVAAPGVCSLSCPSPPRSSAHPGPRGPLFPAL (protein, listed as Homo sapiens)
chain: VLNSGARVWPSASALGLTAPPKDAEDRARPASGLRGARVLSEGREPRASLRVQVRPGLDVAAPGVCSLSCPSPPRSSAHPGPRGPLFPAL
B19: ARQEKLAFQEDSRSTLSRRELDAAHTGTTGQDSDFPVTAASTVDFLKIKKSCEENVCRSLKDCEMEKCPDSCAHEMESVADHEPNKRILG (protein, listed as Homo sapiens)
chain: ARQEKLAFQEDSRSTLSRRELDAAHTGTTGQDSDFPVTAASTVDFLKIKKSCEENVCRSLKDCEMEKCPDSCAHEMESVADHEPNKRILG

What follows are molecules tested against T1, ADAM17 (Homo sapiens, UniProt P78536) (assay: SEPARATE assay: human peptidome library digest with ADAM17). Conditions: human library, ADAM17; peptide amino acids 496-585.
T1 construct: purchased RnD Systems
Format: biochemical
Experimental: Streptavidin-coupled magnetic beads (Dynabeads M-280 Streptavidin, ThermoFisher Scientific) were washed (TBS, pH 7.4, 0.01% NP40) and resuspended in binding buffer (TBS, pH 7.4, 0.001% NP40) containing 2E9 plaque forming units per 10 μl of bead slurry. End-over-end mixing at room temperature was performed for one hour. Phage-coated beads were washed three times with wash buffer and transferred into two protein LoBind Eppendorf tubes blocked with TBS, pH 7.4 containing 1% BSA.
Digestion occurred overnight at room temperature with end-over-end rotation. […] To remove any residual biotinylated phage that may have been nonspecifically released, the 150 μl supernatant of the quenched digest reaction is then incubated with a fresh 10 μl of slurry volume M280 streptavidin beads (pre-washed three times with wash buffer) in a LoBind Eppendorf tube blocked with TBS, pH 7.4 containing 1% BSA at room temperature for one hour with end-over-end rotation.
10 μl slurry volume of protein G magnetic dynabeads were washed in buffer (TBS, pH 7.4, 0.01% NP40) and then resuspended in 50 μl TBS, pH 7.4, 0.01% NP40 containing 4 μg of M2 FLAG antibody for thirty minutes at room temperature with end-over-end rotation. The 150 μl quenched digest reaction is added to the 10 μl FLAG-coated Protein G beads and incubated for 60 minutes at room temperature with end-over-end rotation to capture phage particles released at the protease digest step. Beads are rinsed once with 100 μl wash buffer and stored at −80° C. until PCR amplification.
Library PCR preparation, high-throughput DNA sequencing, and peptide read count data generation was performed as described previously.^44 Briefly, library peptide inserts are amplified by resuspending 10 μl of FLAG-coated Protein G beads in PCR1 master mix containing the T7-Pep2_PCR1_F forward primer ([…]) (SEQ ID NO:3) and a T7-SEPARATE vector specific reverse primer ([…]) (SEQ ID NO:4), which includes an adapter sequence for sample-specific barcoding and Illumina P7 adapter incorporation during a subsequent PCR2 reaction. The PCR2 amplicons are pooled and sequenced using an Illumina NextSeq instrument in standard output mode to obtain single-end 50 nucleotide reads. Dual indexed sample demultiplexing and clonal read count determination were performed using exact sequence matching. […] To calculate the normalization factor, 100 peptides were randomly selected from the mock digest conditions with a read count ranging between 10 and 40. The median read count value for these 100 peptides is calculated for each sample. The random peptide selection and median calculation is performed 20 times and the average of the 20 median values is calculated for each sample. Finally, the normalization factor is calculated by dividing the average median value for each sample by that for one of the mock digest conditions. Read counts are then converted to normalized read counts by dividing each sample's read count values by the normalization factor. Fold enrichments are calculated for each peptide by dividing their normalized read counts in the digest condition by the normalized read counts in the mock digest condition. The fold enrichments can be visualized in an MA plot by transforming the normalized read count data into a log ratio (M, on the y-axis) and a mean average (A, on the x-axis) between the digest and mock digest conditions.

T1 sequence (P78536 215-824): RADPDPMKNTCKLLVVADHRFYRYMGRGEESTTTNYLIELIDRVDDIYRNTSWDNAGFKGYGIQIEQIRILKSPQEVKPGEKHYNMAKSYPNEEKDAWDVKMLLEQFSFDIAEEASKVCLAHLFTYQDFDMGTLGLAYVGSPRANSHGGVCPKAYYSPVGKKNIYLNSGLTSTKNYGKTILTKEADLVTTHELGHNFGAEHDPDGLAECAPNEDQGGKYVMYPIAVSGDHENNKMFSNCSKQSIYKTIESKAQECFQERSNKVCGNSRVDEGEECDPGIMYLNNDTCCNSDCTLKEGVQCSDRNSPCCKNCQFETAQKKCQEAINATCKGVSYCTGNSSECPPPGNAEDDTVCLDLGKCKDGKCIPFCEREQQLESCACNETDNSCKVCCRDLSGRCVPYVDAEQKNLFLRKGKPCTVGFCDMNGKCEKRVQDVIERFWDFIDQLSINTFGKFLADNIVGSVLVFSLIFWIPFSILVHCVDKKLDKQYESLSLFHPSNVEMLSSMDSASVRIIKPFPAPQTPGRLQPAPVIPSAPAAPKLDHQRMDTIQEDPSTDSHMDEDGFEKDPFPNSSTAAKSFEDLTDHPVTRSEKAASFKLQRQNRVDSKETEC

Molecule	known substrate peptide identified by SEPARATE
B1	identified

Same assay, conditions: top 20 enriched peptides, human library (90-aa tiles); digest vs mock digest

Molecule	Adam17 Fold Change
B2	35.48 fold
B3	57.55 fold
B4	39.34 fold
B5	39.07 fold
B6	34.93 fold
B7	51.48 fold
B8	48.17 fold
B9	34.57 fold
B10	43.29 fold
B11	38.34 fold
B12	39.99 fold
B13	37.14 fold
B14	45.89 fold
B15	35.48 fold
B16	41.41 fold
B17	39.89 fold
B18	44.03 fold
B19	34.10 fold
